Measured values as given in doi:10.1101/2022.03.18.484894, “Molecular determinants of the Bacillus subtilis chromosome origin basal unwinding system”.

Legend:
DnaA R264A = DnaA R264A (Bacillus subtilis, UniProt P05648 1-446, R264A); assay: EMSA; smaller complex that enters the gel; EMSA: 13 nM scaffold, 250-1000 nM DnaA, 10 mM HEPES-KOH pH 8, 100 mM K-glutamate, 1 mM Mg acetate, 30% glycerol, 10% DMSO, 1 mM ADP or ATP, 20 C, 3 h; 6% PAGE with 5 mM MgCl2; conditions: protein: recombinant; tags: none after cleavage of His14-SUMO; label: 5'-Cy3 on strand 1 (oHM752); 5'-Cy5 on strand 2 (oHM590); three-strand duplex: strands 1 and 2 adjacent (nick) on 41-nt strand 3, blunt
DnaA [1] = molecular target: T1, DnaA (Bacillus subtilis, UniProt P05648 1-446); assay: EMSA; ATP; large complex near the well plus strand separation; EMSA: 13 nM scaffold, 250-1000 nM DnaA, 10 mM HEPES-KOH pH 8, 100 mM K-glutamate, 1 mM Mg acetate, 30% glycerol, 10% DMSO, 1 mM ADP or ATP, 20 C, 3 h; 6% PAGE with 5 mM MgCl2; conditions: protein: recombinant; tags: none after cleavage of His14-SUMO; label: 5'-Cy3 on strand 1 (oHM752); 5'-Cy5 on strand 2 (oHM590); three-strand duplex: strands 1 and 2 adjacent (nick) on 41-nt strand 3, blunt
DnaA [2] = molecular target: T1, DnaA; assay: EMSA; ATP; large complexes enter the gel poorly; EMSA: 13 nM scaffold, 250-1000 nM DnaA, 10 mM HEPES-KOH pH 8, 100 mM K-glutamate, 1 mM Mg acetate, 30% glycerol, 10% DMSO, 1 mM ADP or ATP, 20 C, 3 h; 6% PAGE with 5 mM MgCl2; conditions: protein: recombinant; tags: none after cleavage of His14-SUMO; label: Cy3 on annealed strand; Cy5 on separated strand; three-strand scaffold

B1: B. subtilis WT BUS scaffold (EMSA substrate) (dsDNA)
DNA 1: ACTTATCCACAAATCCACAGGCCC
DNA 2: TACTATTACTTCTACTA
DNA 3: TAGTAGAAGTAATAGTAGGGCCTGTGGATTTGTGGATAAGT
B1: binds (DnaA R264A); binds (DnaA [1]).

B2: BUS scaffold with phosphorothioate backbone (EMSA) (XNA)
DNA 1: ACTTATCCACAAATCCACAGGCC
DNA 2: CTACTATTACTTCTACTA
DNA 3: B1 DNA 3
modifications: phosphorothioate linkages in the DnaA-trio region; exact positions of the EMSA version not stated
B2: binds (DnaA [2]).
